Source: paper PMC5339710, “Single-molecule studies reveal reciprocating of WRN helicase core along ssDNA during DNA unwinding”

T1: WRN helicase core (WRN512-1213) (Gallus gallus, UniProt D3KR65 512-1213)
T1 sequence: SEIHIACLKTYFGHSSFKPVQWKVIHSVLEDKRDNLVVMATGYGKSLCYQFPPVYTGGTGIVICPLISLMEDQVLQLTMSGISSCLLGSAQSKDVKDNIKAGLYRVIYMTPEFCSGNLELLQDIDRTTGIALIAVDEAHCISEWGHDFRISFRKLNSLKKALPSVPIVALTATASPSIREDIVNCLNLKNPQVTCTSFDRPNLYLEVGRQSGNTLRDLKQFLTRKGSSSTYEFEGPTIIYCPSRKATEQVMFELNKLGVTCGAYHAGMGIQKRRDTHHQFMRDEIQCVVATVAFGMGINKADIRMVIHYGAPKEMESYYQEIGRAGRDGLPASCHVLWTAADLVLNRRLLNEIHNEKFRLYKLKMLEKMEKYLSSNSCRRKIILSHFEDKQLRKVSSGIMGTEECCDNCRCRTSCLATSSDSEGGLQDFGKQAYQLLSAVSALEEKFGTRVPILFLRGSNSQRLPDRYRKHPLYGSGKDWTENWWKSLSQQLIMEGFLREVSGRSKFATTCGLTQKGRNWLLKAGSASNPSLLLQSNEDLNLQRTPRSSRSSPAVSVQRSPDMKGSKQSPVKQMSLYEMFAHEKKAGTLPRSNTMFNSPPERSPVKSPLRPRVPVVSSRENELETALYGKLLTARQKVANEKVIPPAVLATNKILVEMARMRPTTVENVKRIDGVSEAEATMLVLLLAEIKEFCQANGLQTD


Experiments:
[1] = target: T1, WRN helicase core (WRN512-1213); assay: fluorescence polarization anisotropy; 0.2 mM ATPgS; 5 mM Mg2+; Hill coefficient 1; 20 mM Tris-HCl pH 8.0, 50 mM KCl, 5 mM MgCl2, 5 nM DNA, 25 C, 5 min equilibration; details: protein: recombinant; tags: 6xHis-SUMO at N-terminus, cleaved with Ulp; label: fluorescein (FAM), position by colour only; single strand
[2] = target: T1, WRN helicase core (WRN512-1213); assay: fluorescence polarization anisotropy; 0.2 mM ADP; 5 mM Mg2+; Hill coefficient 1; 20 mM Tris-HCl pH 8.0, 50 mM KCl, 5 mM MgCl2, 5 nM DNA, 25 C, 5 min equilibration; details: protein: recombinant; tags: 6xHis-SUMO at N-terminus, cleaved with Ulp; label: fluorescein (FAM), position by colour only; single strand
[3] = target: T1, WRN helicase core (WRN512-1213); assay: fluorescence polarization anisotropy; 5 mM Mg2+; no nucleotide stated; Hill coefficient 2; 20 mM Tris-HCl pH 8.0, 50 mM KCl, 5 mM MgCl2, 5 nM DNA, 25 C, 5 min equilibration; details: protein: recombinant; tags: 6xHis-SUMO at N-terminus, cleaved with Ulp; label: fluorescein (FAM), position by colour only; blunt

Binder | Kd [1] | Kd [2] | Kd [3]
CTCTGCTCGACGGATT (ssDNA) [16nt-FAM] | 0.0766 ± 0.0042 µM | 0.141 ± 0.0105 µM | –
16bp-FAM (dsDNA) DNA 1: CTCTGCTCGACGGATT DNA 2: AATCCGTCGAGCAGAG | – | – | 0.0322 ± 0.0028 µM
